Measured values reported in publication doi:10.1101/2023.11.17.567542 (bioRxiv, 2023).

Target: T1, HypD (Escherichia coli, UniProt P24192 1-373)
T1 sequence (looked up): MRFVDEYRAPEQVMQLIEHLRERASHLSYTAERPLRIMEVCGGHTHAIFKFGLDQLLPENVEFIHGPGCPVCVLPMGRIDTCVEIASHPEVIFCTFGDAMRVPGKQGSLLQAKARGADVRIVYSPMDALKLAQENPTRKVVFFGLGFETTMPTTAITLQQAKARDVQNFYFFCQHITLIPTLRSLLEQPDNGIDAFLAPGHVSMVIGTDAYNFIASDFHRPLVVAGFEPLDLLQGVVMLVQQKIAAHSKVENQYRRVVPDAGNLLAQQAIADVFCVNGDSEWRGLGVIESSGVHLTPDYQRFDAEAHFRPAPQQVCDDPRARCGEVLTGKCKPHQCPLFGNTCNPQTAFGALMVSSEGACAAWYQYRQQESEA
Assay: pull-down

B1: StrepII-tagged HypC with amino acid exchange C2A (natural protein, Escherichia coli, UniProt P0AAM3 2-90, looked up)
chain: AIGVPGQIRTIDGNQAKVDVCGIQRDVDLTLVGSCDENGQPRVGQWVLVHVGFAMSVINEAEARDTLDALQNMFDVEPDVGALLYGEEK
- binding result: binds
